Laboratory results taken from US8058507B2, “HOPM1 mediated disease resistance to Pseudomonas syringae in Arabidopsis” (priority 2007, dated 2011).
Residues, ends and D or L forms follow the SMILES beside them. *: point of attachment. Cbz = O=C(OCc1ccccc1)*

Experiments:
AtMIN7 = assay: Proteasome/protease inhibitors on HopM1-mediated destabilization of AtMIN7 in N. benthamiana leaves (immunoblot); type: cell-based, Arabidopsis thaliana; conditions: AtMIN7:HA and 6×His:HopM1 1-712 co-expressed
Experimental: AtMIN-HA and 6×His-HopM1 proteins were detected using the HA and 6×His epitope antibodies, respectively. AtMIN7-HA was pulled down with HopM1-300 but not with 6×His-HopM1301-712; and (C) Western blot and reverse transcription polymerase chain reaction analyses of HopM1-dependent destabilization of AtMIN7 in Arabidopsis plants. Leaves of Col-0 gl1 plants were infiltrated with water or 1×10^8 CFUs per milliliter of DCEL mutant bacteria with or without pORF43 and harvested 10 hours later. The endogenousAtMIN7 protein—detected with the use of a rabbit polyclonal AtMIN7 antibody—was absent in leaves infiltrated with DCEL mutant bacteria (pORF43) that produce HopM1; however, the AtMIN7 transcript level was not reduced. […] AtMIN7:HA and 6×His:HopM11-712 proteins were detected with HA and 6×His epitope antibodies, respectively.
N. benthamiana plants were transiently transformed with HopM1 and AtMIN proteins. In brief, fully expanded N. benthamiana leaves were co-infiltrated with Agrobacterium tumefaciens C58 C1 (for an example of co-infiltration techniques, see, Hellens, et al. (2005) Plant Methods, 1:13; herein incorporated by reference) comprising plasmids and genes described herein (for example, see, Bechtold, et al. (1993) Comptes Rendus De L Academie Des Sciences Serie Iii-Sciences De La Vie-Life Sciences 316(10):1194-1199; herein incorporated by reference). […]

[1] = system: transgenic plants expressing full-length HopM1; assay: DEX spraying of transgenic plants expressing full-length HopM1; type: in vivo, Arabidopsis
Pst DC3000 ΔCEL mutant = assay: Bacterial multiplication and disease symptoms in HopM1 transgenic Arabidopsis plants; type: in vivo, Pseudomonas syringae; conditions: protein expressed in transgenic Arabidopsis (Col-0 gl1), DEX-induced
Experimental: (§1) Following inoculation, infected plants were monitored daily over a 3- to 4-day period for symptom development and bacterial multiplication. For experiments described in FIGS. 1 and 5, plants were sprayed with 30 μM dexamethasone (DEX) 24 h before bacterial inoculation (1×10^6 cfu/ml).
(§2) Leaves were harvested and surface sterilized as follows: 1) whole leaves were removed from a host plant and gently mixed in a 70% ethanol solution for 1 minute. Leaves were blotted briefly on paper towels then rinsed in sterile distilled water for 1 minute, then blotted dry on paper towels. Leaf disks were excised from leaves with a 0.5 cm^2 or smaller cork borer, depending on the size of the sample leaves; 2) leaf disks from the leaves of 2 or more independent replicate plants were pooled for a single tissue sample and placed in a 1.5-mL microfuge tube with 100 μL sterile distilled water, the amount of leaf tissue per tube was recorded as leaf surface area. Three or more samples were harvested for each time point. […] The number of serial dilutions necessary to get countable colonies were determined for each sample, however dilutions to 10^−7 were usually sufficient for any bacterial strain; 7) The samples were plated on the appropriate medium (e.g., Low salt Luria Bertani) supplemented with the necessary antibiotics to select for the specific inoculated bacterial strain. […]

AtMIN7-HA = target: T1, AtMIN7-HA (Arabidopsis thaliana, UniProt F4IXW2, DEL212-213/INS429[…]); assay: Protein pull-down assay in N. benthamiana leaves; type: binding; conditions: Ni-NTA pull-down, immunoblot
T1 construct: expressed in transfected cells; host or cells: Nicotiana benthamiana leaves, Agrobacterium tumefaciens C58C1 co-infiltration (pBI121-AtMIN or pBAR1-AtMIN, CaMV 35S promoter)
Excerpt: N. benthamiana plants were transiently transformed with HopM1 and AtMIN proteins. In brief, fully expanded N. benthamiana leaves were co-infiltrated with Agrobacterium tumefaciens C58 C1 (for an example of co-infiltration techniques, see, Hellens, et al. (2005) Plant Methods, 1:13; herein incorporated by reference) comprising plasmids and genes described herein (for example, see, Bechtold, et al. (1993) Comptes Rendus De L Academie Des Sciences Serie Iii-Sciences De La Vie-Life Sciences 316(10):1194-1199; herein incorporated by reference).
Protein pull-down analysis methods: N. benthamiana leaf discs were homogenized in lysis buffer (50 mM Tris-HCl pH=8.0, 250 mM NaCl, 10 mM β-mercaptoethanol, 1% Triton X100, 1 mM PMSF, plant protease inhibitor cocktail [Sigma Co.]). Total protein extracts were collected after centrifugation of the homogenate at 20,000-×g for 15 min at 4° C. to remove insoluble materials. The supernatant was incubated with Ni-NTA agarose beads (Qiagen) with gentle shaking for 1 hour at 4° C., followed by centrifugation at 15,000-×g for 1 min to pull down 6×His-HopM1 and its interacting proteins. Beads were then washed three times with lysis buffer and resuspended in 1×SDS-PAGE sample buffer for SDS-PAGE gel and/or immunoblot analyses. […] AtMIN10-HA was detected using the HA epitope antibody.

[2] = system: Arabidopsis Y2H cDNA library; assay: Yeast two-hybrid (Y2H) screening with HopM1 baits; type: binding; conditions: protein used as bait
Excerpt: A LexA-based yeast two-hybrid system was used for screening an Arabidopsis Y2H cDNA library using full-length HopM1 and the dominant-negative domain of HopM1 (HopM11-300) as bait, in separate screenings. This system was based upon a pGilda Lex A expression vector (CLONTECHniques, OCTOBER 1999 p. 26-27, Clontech Laboratories Inc.; herein incorporated by reference in its entirety) for expressing HopM1 proteins in combination with a lacZ reporter gene on a separate plasmid that autonomously replicated in yeast (CLONTECHniques, OCTOBER 1999 p. 26-27, Clontech Laboratories Inc.; herein incorporated by reference in its entirety), see below for addition information (see, MATCHMAKER LexA Two-Hybrid System Catalog #K1609-1 and MATCHMAKER LexA Libraries User Manual (PT3040-1) Version It PR67300 and (Yeast Protocols Handbook, Protocol # PT3024-1 Version # PR13103, published 14 Mar. 2001; herein incorporated by reference in its entirety).
hopM1 DNA fragments were amplified by PCR using the primers listed below and standard PCR procedures then fragments were isolated and cloned into a bait vector pGilda Lex A (resistance to ampicillin (100 μg/ml) to E. coli hosts; Protocol # PT3147-5; Version # PR81829; Clontech Laboratories, Inc.; herein incorporated by reference in its entirety). […]

[3] = system: Pst DC3000 ΔCEL mutant-pORF43 bacteria; assay: Bacterial multiplication and disease symptoms in HopM1 transgenic Arabidopsis plants; type: in vivo, Pseudomonas syringae
Experimental: as §1, §2

T1 sequence (F4IXW2 with tags, fused parts or gaps DEL212-213/INS429[withheld]): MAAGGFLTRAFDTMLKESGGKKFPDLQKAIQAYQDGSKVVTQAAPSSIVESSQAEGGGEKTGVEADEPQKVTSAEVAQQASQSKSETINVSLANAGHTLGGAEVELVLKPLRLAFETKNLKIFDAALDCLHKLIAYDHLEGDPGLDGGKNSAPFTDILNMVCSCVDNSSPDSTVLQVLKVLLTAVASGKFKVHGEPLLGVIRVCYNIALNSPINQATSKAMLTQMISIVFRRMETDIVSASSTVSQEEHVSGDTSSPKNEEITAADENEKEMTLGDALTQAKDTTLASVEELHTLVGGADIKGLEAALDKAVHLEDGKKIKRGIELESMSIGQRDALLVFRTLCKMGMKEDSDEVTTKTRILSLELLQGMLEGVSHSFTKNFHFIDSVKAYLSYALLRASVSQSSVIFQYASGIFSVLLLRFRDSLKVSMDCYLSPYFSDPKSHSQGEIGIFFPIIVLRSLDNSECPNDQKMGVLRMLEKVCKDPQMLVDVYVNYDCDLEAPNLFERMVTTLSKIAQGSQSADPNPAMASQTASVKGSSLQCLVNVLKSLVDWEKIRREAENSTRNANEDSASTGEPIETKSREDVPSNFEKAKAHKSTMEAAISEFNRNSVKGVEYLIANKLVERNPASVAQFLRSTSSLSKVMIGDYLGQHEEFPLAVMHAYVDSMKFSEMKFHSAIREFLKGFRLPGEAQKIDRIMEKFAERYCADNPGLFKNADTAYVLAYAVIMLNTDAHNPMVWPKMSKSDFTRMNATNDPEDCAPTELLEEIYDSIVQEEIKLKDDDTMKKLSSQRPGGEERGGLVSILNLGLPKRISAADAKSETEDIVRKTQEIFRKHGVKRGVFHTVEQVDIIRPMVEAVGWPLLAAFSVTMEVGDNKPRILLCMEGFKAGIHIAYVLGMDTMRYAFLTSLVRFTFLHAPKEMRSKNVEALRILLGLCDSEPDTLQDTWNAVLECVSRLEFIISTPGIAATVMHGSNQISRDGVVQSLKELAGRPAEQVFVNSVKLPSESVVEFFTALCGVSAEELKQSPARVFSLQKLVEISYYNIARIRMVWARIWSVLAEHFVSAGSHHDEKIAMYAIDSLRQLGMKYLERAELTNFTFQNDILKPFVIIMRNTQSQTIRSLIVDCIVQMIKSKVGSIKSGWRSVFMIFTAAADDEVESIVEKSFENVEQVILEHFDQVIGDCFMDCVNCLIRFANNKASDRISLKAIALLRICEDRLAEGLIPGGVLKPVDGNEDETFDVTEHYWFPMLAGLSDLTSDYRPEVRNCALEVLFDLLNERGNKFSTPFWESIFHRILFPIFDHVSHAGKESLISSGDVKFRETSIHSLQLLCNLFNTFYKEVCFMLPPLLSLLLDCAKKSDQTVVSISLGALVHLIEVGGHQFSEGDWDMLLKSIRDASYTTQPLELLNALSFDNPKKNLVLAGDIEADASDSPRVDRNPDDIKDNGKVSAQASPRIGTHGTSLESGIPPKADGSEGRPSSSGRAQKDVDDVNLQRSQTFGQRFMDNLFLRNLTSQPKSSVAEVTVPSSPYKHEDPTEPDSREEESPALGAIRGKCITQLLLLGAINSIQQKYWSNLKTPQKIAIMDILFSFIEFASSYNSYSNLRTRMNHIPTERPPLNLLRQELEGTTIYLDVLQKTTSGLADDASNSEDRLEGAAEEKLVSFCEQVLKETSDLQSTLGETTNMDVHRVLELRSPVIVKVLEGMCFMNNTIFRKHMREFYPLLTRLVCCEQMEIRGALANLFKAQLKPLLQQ

CC(C)C[C@@H](C=O)NC(=O)[C@H](CC(C)C)NC(=O)[C@H](CC(C)C)NC(=O)OCc1ccccc1 [MG132] (Cbz-Leu-Leu-Leu-aldehyde)
HopM1-mediated destabilization of AtMIN7 (AtMIN7): blocked

C[C@@H]1C[C@H]2[C@@H]3CCC4=CC(=O)C=C[C@]4(C)[C@@]3(F)[C@@H](O)C[C@]2(C)[C@@]1(O)C(=O)CO [DEX, dexamethasone]
leaf necrosis ([1]; 0.003 μM spray): did not induce leaf necrosis | leaf necrosis ([1]; 30 μM DEX spray): induced rapid leaf necrosis | time to leaf necrosis ([1]; 30 μM DEX spray): ≤ 10 h

CC[C@H](C)[C@H](NC(=O)[C@H]([C@@H](C)CC)N(C)C(C)=O)C(=O)N[C@H](C(=O)N[C@@H](CC(C)C)C(=O)[C@@]1(C)CO1)[C@@H](C)O [epoxomicin]
HopM1-mediated destabilization of AtMIN7 (AtMIN7): blocked

B1: HopM1101-712: HopM1 truncated derivative lacking the first 100 aa (SEQ ID NO:98) (protein, listed as Pseudomonas syringae)
chain: LLQAFKAEHGTAPVSGAPMISSRAALLIGSLLQAEPLPFEVMAEKLSPERYQLKQFQGSDLQQRLEKFAQPGQIPDKAEVGQLIKGFAQSVADQLEHFQLMHDASPATVGQHAKADKATLAVSQTALGEYAGRASKAIGEGLSNSIASLDEHISALDLTLQDAEQGNKESLHADRQALVDAKTTLVGLHADFVKSPEAKRLASVAAHTQLDNVVSDLVTARNTVGGWKGAGPIVAAAVPQFLSSMTHLGYVRLSTSDKLRDTIPETSSDANMLKASIIGMVAGIAHETVNSVVKPMFQAALQKTGLNERLNMVPMKAVDTNTVIPDPFELKSEHGELVKKTPEEVAQDKAFVKSERALLNQKKVQGSSTHPVGELMAYSAFGGSQAVRQMLNDVHQINGQTLSARALASGFGGAVSASSQTLLQLKSNYVDPQGRKIPVFTPDRAESDLKKDLLKGMDLREPSVRTTFYSKALSGIQSSALTSALPPVTAQAEGASGTLSAGAILRNMALAATGSVSYLSTLYTNQSVTAEAKALKAAGMGGATPMLDRTETALNNIRHPNRESLPHTFQKSTLSGIPRVAENAYHMGRGALQLPTQMAVDTVRVVDEGVLNAVASAREALKQPTKDDDALRALEEGLLDPR
complementation of the virulence defect (multiplication, disease symptoms) (Pst DC3000 ΔCEL mutant): partially restored

B2: HopM11-300: N-terminal protective fragment of HopM1, amino acids 1-300 (SEQ ID NO:82) (protein, listed as Pseudomonas syringae)
chain: MISSRIGGAGGVELSRVNQQHDTVPAQTAHPNAVTAGMNPPLTPDQSGSHATESSSAGAARLNVAARHTQLLQAFKAEHGTAPVSGAPMISSRAALLIGSLLQAEPLPFEVMAEKLSPERYQLKQFQGSDLQQRLEKFAQPGQIPDKAEVGQLIKGFAQSVADQLEHFQLMHDASPATVGQHAKADKATLAVSQTALGEYAGRASKAIGEGLSNSIASLDEHISALDLTLQDAEQGNKESLHADRQALVDAKTTLVGLHADFVKSPEAKRLASVAAHTQLDNVVSDLVTARNTVGGWKGA
modifications: 6xHis tag
physical interaction with AtMIN7-HA (AtMIN7-HA): physical interaction | interactors recovered in Y2H screen [2]: 21 | effect on the function of full-length HopM1 delivered from the infecting bacteria ([3]; fragment expressed in transgenic Arabidopsis): dominant-negative effect | disease symptoms (necrosis and chlorosis) and bacterial multiplication ([3]; transgenic Arabidopsis vs Col-0 gl1 or plants expressing other truncated derivatives): significantly reduced

B3: HopM1301-712: HopM1 truncated derivative, amino acids 301-712 (protein)
chain: GPIVAAAVPQFLSSMTHLGYVRLSTSDKLRDTIPETSSDANMLKASIIGMVAGIAHETVNSVVKPMFQAALQKTGLNERLNMVPMKAVDTNTVIPDPFELKSEHGELVKKTPEEVAQDKAFVKSERALLNQKKVQGSSTHPVGELMAYSAFGGSQAVRQMLNDVHQINGQTLSARALASGFGGAVSASSQTLLQLKSNYVDPQGRKIPVFTPDRAESDLKKDLLKGMDLREPSVRTTFYSKALSGIQSSALTSALPPVTAQAEGASGTLSAGAILRNMALAATGSVSYLSTLYTNQSVTAEAKALKAAGMGGATPMLDRTETALNNIRHPNRESLPHTFQKSTLSGIPRVAENAYHMGRGALQLPTQMAVDTVRVVDEGVLNAVASAREALKQPTKDDDALRALEEGLLDPR
modifications: left off: small tags and cut ends
physical interaction with AtMIN7-HA (AtMIN7-HA): no interaction
